Laboratory results: the supplement of paper PMC10567573
± gives the standard deviation.

Experiment: protein stability index of a GFP-peptide fusion (GPS, HEK-293T) (PSI 1-6); higher = more stable
[1] = treatment: DMSO, c terminus: a fixed tail appended
[2] = treatment: MLN4924 1 uM, 8 h, c terminus: a fixed tail appended
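Further: 24-mer peptide tiles fused after GFP, lentivirally expressed, FACS-sorted into six equal bins by GFP/DsRed ratio, decoded by Illumina sequencing, PSI is the read-weighted mean bin number.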

Row | Sequence | protein stability index [1] | protein stability index [2] | protein stability index (treatment: DMSO, c terminus: native) | protein stability index (treatment: MLN4924 1 uM, 8 h, c terminus: native)
1 | LGLKDKEGYTSFWNDCISSGLRGG [GOLPH3L] | 2.65 ± 0.59 | 2.83 ± 0.31 | – | –
2 | GFFLLQLANHTGYIKVDWQRVEKD [FUNDC2] | 2.34 ± 0.69 | 2.11 ± 0.37 | – | –
3 | MAVPPGHGPFSGFPGPQEHTQVLP [DYRK1B] | 3.75 ± 0.29 | 3.66 ± 0.065 | – | –
4 | LIHQHEKVIYLDDDVIVQGDIQEL [GLT8D2] | 3.6 ± 0.26 | 3.59 ± 0.22 | – | –
5 | YCKPTRLDLLLDMPPVSYDVQLLH [SPSB1] | 2.2 ± 0.23 | 2.14 ± 0.33 | – | –
6 | RLKLLKDREVDAATSATSHTRSLN [FBF1] | 4.31 ± 0.32 | 4.41 ± 0.16 | – | –
7 | YLVQGLVEECQAALQNKDTYEPFC [KCTD10] | 2.32 ± 0.46 | 2.65 ± 0.24 | – | –
8 | YLILALLSVTISFRIYKSVIQAVQ [RTN3] | 3.42 ± 0.42 | 2.99 ± 0.48 | – | –
9 | PHRMDRRLLALIYLAHASDVLENA [GOLPH3] | 2.55 ± 0.27 | 2.34 ± 0.21 | – | –
10 | YIGFYGKETTNTCILKCNLCSVNI [PDS5B] | 2.98 ± 1.6 | 2.96 ± 1 | – | –
11 | DGSKSLGEENFEVVKQFVTGIIDS [MATN2] | 4.38 ± 0.13 | 4.33 ± 0.27 | – | –
12 | NYDKLSRSIRQYYKKGIIRKPDIS [SPDEF] | 2.55 ± 0.21 | 2.74 ± 0.34 | – | –
13 | MNRSIPVEVDESEPYPSQLLKPIP [TRAF3IP2] | 4.44 ± 0.19 | 4.45 ± 0.34 | – | –
14 | AFSSRLGGSRGAPGLLMAVGQDLY [DCAF4] | 2.19 ± 0.48 | 2.15 ± 0.38 | – | –
15 | DGNSLLSSIECYDPIIDSWEVVTS [KLHL12] | 3.29 ± 0.33 | 3.47 ± 0.47 | – | –
16 | NISELKRTFLETSTDTAVTNEWEK [EPB41L3] | 4.82 ± 0.25 | 4.686 ± 0.034 | – | –
17 | TYVAKMSEPHYGHAGTVYGGVMYI [KLHL13] | 3.32 ± 0.82 | 2.52 ± 0.45 | – | –
18 | EAPQWLESDSCQKCEQPFFWNIKQ [WDFY1] | 3.32 ± 0.7 | 3.48 ± 0.38 | – | –
19 | PPPPPSYDPDYIQCPYCQRRFNEN [ZC2HC1A] | 5.27 ± 0.34 | 5.44 ± 0.17 | – | –
20 | AEGSNSESSDDDSEEAPSTSGMGF [SDE2] | 5.37 ± 0.15 | 5.26 ± 0.36 | – | –
21 | QSQLSMKAGLENSLAETECRYATQ [KRT15] | 4.38 ± 0.23 | 4.46 ± 0.17 | – | –
22 | IPIHGKGNFPTMEVKPKDIIHVVK [TENT5D] | 2.86 ± 0.24 | 2.93 ± 0.2 | – | –

Row | Sequence | protein stability index [1] | protein stability index [2] | protein stability index (treatment: DMSO, c terminus: native) | protein stability index (treatment: MLN4924 1 uM, 8 h, c terminus: native)
23 | ELGEEAMEKFREDEGFIKEEERPL [KCNA1] | 5.6 ± 0.31 | 5.63 ± 0.2 | – | –
24 | STLLPLAPSNSTSLNSTFGSTNLT [NFE2L1] | 3.64 ± 0.19 | 3.86 ± 0.16 | – | –
25 | FKRRRVRRRRMETIVFLDKEVFAS [PCMTD2] | 2.62 ± 0.16 | 2.86 ± 0.33 | – | –
26 | KSSAQGPIPWFLPESRSLPSSPLR [PPEF2] | 3.56 ± 0.53 | 3.56 ± 0.21 | – | –
27 | PALHPAHAPQISYTGPSSSGRFAG [NCK2] | 4.02 ± 0.15 | 4.15 ± 0.12 | – | –
28 | EVVPALEPTETLLSEKEINAREES [BCL2L13] | 5.6 ± 0.13 | 5.58 ± 0.22 | – | –
29 | EELQSWVRGHHPKSGEEAVTVLED [ZNF232] | 5.09 ± 0.38 | 5.07 ± 0.39 | – | –
30 | INVNDLSFVTGSHVGELIIWDALD [WDR41] | 2.22 ± 0.41 | 2.12 ± 0.2 | – | –
31 | ESQKKKQQDDSDEYDDDDSAASTS [ZNF207] | 5.7 ± 0.1 | 5.53 ± 0.18 | – | –
32 | QYLEEERHMREENLRLQRKLQREM [CCDC6] | 4.24 ± 0.22 | 4.16 ± 0.42 | – | –
33 | LDVDTAAGGFQQRQGLKYCLPLTF [FBXO3] | 2.42 ± 0.19 | 2.22 ± 0.45 | – | –
34 | DVRMGGSFRGAFSNSEKAKNIFRI [NET1] | 2.32 ± 0.44 | 2.44 ± 0.31 | – | –
35 | GEEPVPHQQVEEALSFTLLGSAPL [NEK8] | 4.33 ± 0.22 | 4.32 ± 0.29 | – | –
36 | GKSFCHSTHLTVHRRIHTGEKPYE [ZNF8] | 3 ± 0.16 | 3.35 ± 0.3 | – | –
37 | ADVWSLGVMLYTLLVGRYPFHDSD [TRIB1] | 3.15 ± 0.26 | 2.58 ± 0.26 | – | –
38 | KPANILLDAHYHVKISDFGLAKCN [RIPK4] | 2.33 ± 0.22 | 2.49 ± 0.23 | – | –
39 | YDVKYLMKSCKNLKGGLQEVAEQL [CNOT7] | 2.61 ± 0.43 | 2.98 ± 0.33 | – | –
40 | CYTFSVLITFDNKAHSGRIPISLE [MCOLN1] | 3.58 ± 0.41 | 3.3 ± 0.62 | – | –
41 | ENHQPVSLSDLEIQASAGVISKKA [ZNF75A] | 4.94 ± 0.19 | 4.98 ± 0.39 | – | –
42 | QKCHSIGETDEVTKTEDRELVLRK [ZSCAN9] | 5.32 ± 0.3 | 5.37 ± 0.2 | – | –
43 | ERTWPPPAMSPYWRTWMTITQSWQ [C22orf15] | 2.31 ± 0.58 | 1.94 ± 0.32 | – | –
44 | PLDVVKVRLQSQRPSMASELMPSS [SLC25A39] | 3.65 ± 0.34 | 3.59 ± 0.36 | – | –

Row | Sequence | protein stability index [1] | protein stability index [2] | protein stability index (treatment: DMSO, c terminus: native) | protein stability index (treatment: MLN4924 1 uM, 8 h, c terminus: native)
45 | IAQAEEQARKRQEEREKEAAEQAE [SMARCE1] | 5.24 ± 0.12 | 5.892 ± 0.034 | – | –
46 | GSKEGNHHSTQPKRNKRNPIFQDS [FAM104B] | 4.57 ± 0.21 | 4.55 ± 0.3 | – | –
47 | YYNVVLLRYQFSRPGPQSVPLQLS [FCHO1] | 3.13 ± 0.43 | 2.91 ± 0.53 | – | –
48 | EERERIERVRRIHIKRPDDRAHLH [KCTD10] | 4.43 ± 0.18 | 4.54 ± 0.23 | – | –
49 | VLASFILDDGEIDEIRWKYHSDTT [IQUB] | 2.5 ± 0.23 | 2.18 ± 0.3 | – | –
50 | LDEGMQIPSTQFDAAHPTNVQRLA [CTNNB1] | 4.73 ± 0.12 | 4.7 ± 0.2 | – | –
51 | NLVAGCLQLNARSFMMGQGGEAAH [NEUROD6] | 2.34 ± 0.22 | 2.02 ± 0.11 | – | –
52 | ELRDSSAYHVPNRTLASGRLLSYR [DNAAF3] | 3.04 ± 0.11 | 3.25 ± 0.096 | – | –
53 | PDPEPPPVTPQVGEGRKSRKFSRL [SMG5] | 3.98 ± 0.27 | 4.14 ± 0.45 | – | –
54 | TSEDLRLQCDAVNLAFGRRCEELE [TEKT4] | 4.51 ± 0.32 | 4.71 ± 0.29 | – | –
55 | PSLLELAWEKLLAAFPNLANLSRT [KLHDC10] | 2.56 ± 0.21 | 2.55 ± 0.24 | – | –
56 | MRQRISRVEESALRALREKLFAHS [PPEF2] | 2.72 ± 0.24 | 2.71 ± 0.33 | – | –
57 | DIKQLIAKKIKLTAEAEELKPFFM [SOAT1] | 2.59 ± 0.59 | 2.15 ± 0.1 | – | –
58 | SHPACPLEFAYYFRPGHLLANACL [ZSWIM9] | 2.81 ± 0.54 | 2.52 ± 0.56 | – | –
59 | MNYRRLGGGVGVIKMTHCESHIW [KLHL20] | – | – | 2.75 ± 0.32 | 2.34 ± 0.31
60 | CIHTGLSQYIAVEAAEGRNKNEVF [FBXO3] | 3.38 ± 0.49 | 3.48 ± 0.19 | – | –
61 | RFNLILADTNSDRLFTVNDVKVGG [DCAF4] | 2.44 ± 0.15 | 2.31 ± 0.4 | – | –
62 | EQAKKESEDQKRLKQAKELDRERA [CHCHD3] | 5.57 ± 0.24 | 5.48 ± 0.17 | – | –
63 | FGHRFIILDTDEYVLKYMESNAAQ [EFHC1] | 2.25 ± 0.45 | 2.05 ± 0.31 | – | –
64 | AGAPPPSGSAVSTAPQQKPIGKIS [SRPK2] | 5.01 ± 0.26 | 5.04 ± 0.24 | – | –
65 | MEQFCWPHLRSFCETCVGSWSIQM | 2.82 ± 0.44 | 2.49 ± 0.73 | – | –
66 | RPIPTPVGSVHVDSGASAITRESH [CSNK1G1] | 4.86 ± 0.33 | 4.9 ± 0.27 | – | –

Row | Sequence | protein stability index [1] | protein stability index [2] | protein stability index (treatment: DMSO, c terminus: native) | protein stability index (treatment: MLN4924 1 uM, 8 h, c terminus: native)
67 | FCREEMGEVLKSSTFSSGPSDKMK [SPOPL] | 3.53 ± 0.41 | 3.69 ± 0.23 | – | –
68 | RGRMPPTQPTHGQFALTNGDPLNC [NR2F2] | 4.06 ± 0.12 | 3.97 ± 0.26 | – | –
69 | KWFGRKRTLSAFLCLGGLACLIVM [SLC22A15] | 5.07 ± 0.21 | 5.17 ± 0.18 | – | –
70 | KVIERGERLDELQDKSESLSDNAT [VAMP4] | 5.38 ± 0.13 | 5.33 ± 0.18 | – | –
71 | DGMRNKETLEGREKAFIAHFQDNL [MED27] | 4.35 ± 0.17 | 4.2 ± 0.17 | – | –
72 | TITMAHLLAAREDLSKIIRTSSGT [FAM98B] | 2.31 ± 0.33 | 2.38 ± 0.4 | – | –
73 | DAIGEGKVTLRIRNVRFSDEGGFT [MOG] | 2.88 ± 0.35 | 2.84 ± 0.44 | – | –
74 | LLEGQDAKMAGIGIREASSGGGGS [KRT15] | 5.09 ± 0.14 | 4.87 ± 0.2 | – | –
75 | NNSIKDLTDGHFENILADNSVNDQ [SERPINB5] | 5.32 ± 0.12 | 5.26 ± 0.25 | – | –
76 | SRDGATGHVLLTDSEFSMQEPMVP [PPFIA4] | 4.6 ± 0.27 | 4.6 ± 0.29 | – | –
77 | EETRQKQLLADEKMKQLTEETEVL [TRIM35] | 5.65 ± 0.11 | 5.57 ± 0.22 | – | –
78 | LCLGGLACLIVMFLPEKKDTGVFA [SLC22A15] | 3.44 ± 0.26 | 3.08 ± 0.67 | – | –
79 | DTPVQNKRRRSVTPPEEQQEAEEP [CDC25B] | 5.51 ± 0.35 | 5.71 ± 0.22 | – | –
80 | HLVQHQHPNSRKSSAGGAKAGQPE [ZNF8] | 4.8 ± 0.18 | 4.79 ± 0.16 | – | –
81 | EEIPVVICAAAGRMGATMAAINSI [GLT8D2] | 2.48 ± 0.52 | 2.22 ± 0.21 | – | –
82 | YVIGGRNETGYLSSVECYNLETNE [KLHL14] | 2.66 ± 0.31 | 3.02 ± 0.59 | – | –
83 | EWENNRESLIVFMEQVHRGIKGLV [CPXM2] | 2.27 ± 0.56 | 2.07 ± 0.37 | – | –
84 | TIDKQREEMAKSSRASAARVGQLQ [LRRC45] | 4.67 ± 0.14 | 4.73 ± 0.14 | – | –
85 | TAILIECGADVNVRDSDDNSPLHI [FEM1C] | 3.43 ± 0.34 | 3.5 ± 0.3 | – | –
86 | IIYMAILLTHRCLRDEHRCASKYG [DHCR7] | 2.83 ± 0.75 | 2.75 ± 0.81 | – | –
87 | PDAPDHTSETSHSPLYADPYTPPA [PLEKHN1] | 5.22 ± 0.3 | 5.01 ± 0.28 | – | –
88 | CTSRIFVQKSIYSEFLKRFVEATR [ALDH8A1] | 2.36 ± 0.52 | 2.34 ± 0.5 | – | –
